Experiments:
[1] = biological target: CD20 antigen (Homo sapiens (Human)) (UniProt P11836)
C1q (human) [2] = biological target: C1q (human) (UniProt P02745)
[3] = biological target: CD20 antigen (Homo sapiens (Human)) (UniProt P11836); assay: flow cytometry on WIL2-S cells, EC50 against C2B8 reference
C1q (human) [4] = biological target: C1q (human) (UniProt P02745); assay: C1q binding ELISA, antibody coated
C1q (human) [5] = biological target: C1q (human) (UniProt P02745); assay: C1q binding ELISA, antibody coated, up to 100 µg/ml
[6] = biological target: FcγRI α subunit-GST fusion (Homo sapiens (Human)) (UniProt P12314); assay: ELISA, monomeric IgG on coated FcγRI α subunit-GST
Sequence of FcγRI α subunit-GST fusion (Homo sapiens (Human)) (P12314 16-292): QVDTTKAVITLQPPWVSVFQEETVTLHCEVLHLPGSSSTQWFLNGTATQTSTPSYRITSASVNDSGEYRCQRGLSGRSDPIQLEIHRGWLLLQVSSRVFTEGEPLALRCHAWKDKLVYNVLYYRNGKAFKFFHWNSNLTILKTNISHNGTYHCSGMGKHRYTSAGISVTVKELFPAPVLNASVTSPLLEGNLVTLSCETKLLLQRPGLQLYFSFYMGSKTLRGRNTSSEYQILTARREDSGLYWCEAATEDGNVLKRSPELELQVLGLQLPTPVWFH

[7] = biological target: FcγRIIa α subunit ECD-6-His-GST fusion protein (Homo sapiens (Human)) (UniProt P12318); assay: ELISA, E27:chimeric IgE:VEGF complex on coated receptor
[8] = biological target: FcγRIIIa α subunit ECD-6-His-GST fusion protein (Homo sapiens (Human)) (UniProt P08637); assay: as above
Sequence of FcγRIIIa α subunit ECD-6-His-GST fusion protein (Homo sapiens (Human)) (P08637 17-208): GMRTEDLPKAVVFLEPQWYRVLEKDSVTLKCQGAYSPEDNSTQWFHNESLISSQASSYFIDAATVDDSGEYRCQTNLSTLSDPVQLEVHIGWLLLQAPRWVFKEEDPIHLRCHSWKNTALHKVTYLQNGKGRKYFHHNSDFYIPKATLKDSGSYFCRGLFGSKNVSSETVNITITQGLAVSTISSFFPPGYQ

[9] = biological target: FcγRIIb α subunit ECD-6-His-GST fusion protein (Homo sapiens (Human)) (UniProt P31994); assay: as above

Substance | CD20 binding, percentage of the wild type (% of wild type) [3] | binding, percentage of the wild type (% of wild type) [6] | binding, percentage of the wild type (% of wild type) [7] | binding, percentage of the wild type (% of wild type) [8] | binding, percentage of the wild type (% of wild type) [9] | also measured
C2B8 mutant E318A (antibody) | 89 |  |  |  |  | CDC, percentage of the wild type (% of wild type) [1]: 108; CDC, percentage of the wild type (% of wild type) (C1q (human) [2]): 108; decrease in binding to C1q against wild type C2B8 (C1q (human) [4]): 30%
C2B8 mutant K320A (antibody) | 102 |  |  |  |  | CDC, percentage of the wild type (% of wild type) [1]: 108; CDC, percentage of the wild type (% of wild type) (C1q (human) [2]): 108
C2B8 mutant P329A (antibody) | 112 |  |  |  |  | 
C2B8 mutant P331A (antibody) | 103 |  |  |  |  | fold lower binding to C1q than wild type C2B8 (C1q (human) [5]): 60 fold lower
E27 anti-IgE antibody, Fc mutant E318A |  | 93 | 113 | 104 | 106 | 
E27 anti-IgE antibody, Fc mutant K320A |  | 102 |  | 72 | 83 | 
E27 anti-IgE antibody, Fc mutant K322A |  |  | 109 |  | 101 | 
E27 anti-IgE antibody, Fc mutant P329A |  | 104 |  | 85 |  | 
E27 anti-IgE antibody, Fc mutant P331A |  | 74 | 86 | 73 | 58 | 

From patent publication US6242195
